The text below walks through data of publication PMC12974146.

The target in the assay is Recombinant CdaA fragment spanning residues 88-273 (CdaA_(88-273)), Leptospira interrogans LIC10844 (Leptospira interrogans serovar Copenhageni strain Fiocruz L1-130). The assay can be described thus: SEC; TSKgel G4000SWXL column, PBS as mobile phase, 1.0 mL min^-1; 50 µg of protein injected; MW estimated from a standard curve of 15-600 kDa protein standards.

Consider “Recombinant CdaA fragment spanning residues 88-273 (CdaA_(88-273)), Leptospira interrogans LIC10844 (domain or fragment)”, for which the stoichiometry N (usually the number of molecules, sites or subunits per partner or assembly) is 2.
